Positions count from the first letter of the chain named.
T1: TPX2 construct 1 to 178 (Xenopus laevis, UniProt Q6NUF4 1-178)
T1 construct: TPX2, Xenopus laevis, amino acids 1-178; also called wild-type-1-178 TPX2 construct; TPX2 1 to 178; source: recombinant, purified to >95% purity
T1 sequence (looked up): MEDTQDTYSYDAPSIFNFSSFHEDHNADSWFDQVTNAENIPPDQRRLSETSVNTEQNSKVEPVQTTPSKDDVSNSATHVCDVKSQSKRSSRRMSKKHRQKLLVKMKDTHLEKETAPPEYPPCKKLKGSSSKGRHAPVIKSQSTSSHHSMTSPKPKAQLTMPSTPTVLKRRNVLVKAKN

T2: TPX2 construct 1 to 260 (Xenopus laevis, UniProt Q6NUF4 1-260)
T2 construct: TPX2, Xenopus laevis, amino acids 1-260; also called TPX2 1 to 260; source: recombinant, purified to >95% purity
T2 sequence (looked up): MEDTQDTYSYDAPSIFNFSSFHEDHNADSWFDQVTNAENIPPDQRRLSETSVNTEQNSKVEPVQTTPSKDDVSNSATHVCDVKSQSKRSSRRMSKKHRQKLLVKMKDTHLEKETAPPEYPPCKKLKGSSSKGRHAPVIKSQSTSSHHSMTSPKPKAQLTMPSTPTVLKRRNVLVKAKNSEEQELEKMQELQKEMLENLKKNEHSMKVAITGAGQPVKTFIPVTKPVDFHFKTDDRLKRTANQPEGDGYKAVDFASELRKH

T3: TPX2 1 to 178 with the KKLK motif mutated (K123A, K124A, K126A) (Xenopus laevis, UniProt Q6NUF4 1-178, K123A | K124A | K126A)
T3 construct: TPX2, Xenopus laevis, amino acids 1-178 with the lysines of KKLK (123-126) mutated to alanines; also called TPX2 1 to 178 (K123A, K124A, K126A); source: recombinant, purified to >95% purity
T3 sequence (looked up): T1 sequence (looked up) with K123A, K124A, K126A

B1: importin-α/β heterodimer (complex)
chain 1: not shown
chain 2: MELVTILEKTVSPDRNELEAAQKFLEQAAVENLPTFVVELSKVLANPANSQVARVAAGLQIKNPLTSRDPDVKAQYQQRWLAIDASARGEIKTYVLRTLGTESYRPSSASQCVAGIACAEITVNQWPQLIPQLVANVTDPNSTERMKESTLEAIGYICQDIDPEQLQHKSNEILTAIIQGMRKEEPSNNVRLAATNALLNSLEFTKANFDKESERHYIMQVVCEATQCPDTRVRVAALQNLVKIMSLYYQYMETYMGPALFAITVEAMKNEIDEVALQGIEFWSNVCDEEMDLAIEASEAAEQGRPPEHTSKFYAKGALQYLVPILTQTLTKQDENDDDDDWNPCKAAGVCLMLLATCCEDDIVPHVLPFIKEHIKNPDWRYRDAAVMAFGCILEGPESCQLKPLVIQAMPTLIELMKDPSVVVRDTTAWTVGRICELLPEAAINDVYLAPLLQCLIEGLGAEPRVASNVCWAFSSLAEAAYEAADVADDQEEPSSYCLSSSFEVIVQKLLETTDRPDGHQNNLRSAAYEALMEIVKNSAKDCYPAVQKTTLVIMERLQQVLQVESHIQSTSDRIQFNDLQSLLCATLQNVLRKVQHQDALQISDVVMASLLRMFQSTAGSGGVQEDALMAVSTLVEVLGAEFLKYMEAFKPFLTIGLKNYAEYQVCLAAVGLVGDLCRALQSNILPFCDEMMQFLLENLGNENVHRSVKPQILSVFGDVALAIGGEFKKYLDVVLNTLQQASQAQVDKSDYDMVDYLNELREGCIEAYTGIIQGLKGDQENVHPDVMLVQPRVEFILSFIDHIAGDEDHTDSVVACGAGLIGDLCTAFGKDVLKLVEARPMIHELLTEGRRSKTNKTKTLATWATKELRKLKNQA
B2: importin-β (natural protein, Xenopus laevis, UniProt P52297 1-876, looked up)
chain: B1 chain 2
notes: importin-β, Xenopus laevis; Construct in the Supplemental information; The UniProt entry recalled may be a fragment; also called importin-β alone; source: recombinant, purified to >95% purity
B3: Targeting Protein for XKlp2 (TPX2), full length, wild type (natural protein, Xenopus laevis, UniProt Q6NUF4 1-716, looked up)
chain: MEDTQDTYSYDAPSIFNFSSFHEDHNADSWFDQVTNAENIPPDQRRLSETSVNTEQNSKVEPVQTTPSKDDVSNSATHVCDVKSQSKRSSRRMSKKHRQKLLVKMKDTHLEKETAPPEYPPCKKLKGSSSKGRHAPVIKSQSTSSHHSMTSPKPKAQLTMPSTPTVLKRRNVLVKAKNSEEQELEKMQELQKEMLENLKKNEHSMKVAITGAGQPVKTFIPVTKPVDFHFKTDDRLKRTANQPEGDGYKAVDFASELRKHPPSPVQVTKGGHTVPKPFNLSKGKRKHEEASDYVSTAEQVIAFYKRTPARYHLRSRQREMEGPSPVKMIKTKLTNPKTPLLQTKGRHRPVTCKSAAELEAEELEMINQYKFKAQELDTRILEGGPVLLKKPLVKEPTKAIGFDLEIEKRIQQREKKEEIEEETFTFHSRPCPSKMLTDVVGVPLKKLLPVTVPQSPAFALKNRVRIPAQEEKQEEMVPVIKATRMPHYGVPFKPKLVEQRQVDVCPFSFCDRDKERQLQKEKRLDELRKDEVPKFKAQPLPQFDNIRLPEKKVKMPTQQEPFDLEIEKRGASKLQRWQQQIQEELKQQKEMVVFKARPNTVVHQEPFVPKKENRSLTESLSGSIVQEGFELATAKRAKERQEFDKCLAETEAQKSLLEEEIRKRREEEEKEEISQLRQELVHKAKPIRKYRAVEVKASDVPLTVPRSPNFSDRFKC
notes: TPX2, Xenopus laevis, full length; 1 to 716; Named GFP-TPX2 for SEC-MALS; also called GFP-TPX2; wt-TPX2; source: recombinant, purified to >95% purity
B4: TPX2 C terminus (a.a. 480-716) (domain or fragment, Xenopus laevis, UniProt Q6NUF4 480-716, looked up)
chain: IKATRMPHYGVPFKPKLVEQRQVDVCPFSFCDRDKERQLQKEKRLDELRKDEVPKFKAQPLPQFDNIRLPEKKVKMPTQQEPFDLEIEKRGASKLQRWQQQIQEELKQQKEMVVFKARPNTVVHQEPFVPKKENRSLTESLSGSIVQEGFELATAKRAKERQEFDKCLAETEAQKSLLEEEIRKRREEEEKEEISQLRQELVHKAKPIRKYRAVEVKASDVPLTVPRSPNFSDRFKC
notes: TPX2, Xenopus laevis, amino acids 480-716 (ordered C-terminal region); also called TPX2's C terminus; source: recombinant, purified to >95% purity
B5: TPX2 N terminus (a.a. 1-480) (domain or fragment, Xenopus laevis, UniProt Q6NUF4 1-480, looked up)
chain: MEDTQDTYSYDAPSIFNFSSFHEDHNADSWFDQVTNAENIPPDQRRLSETSVNTEQNSKVEPVQTTPSKDDVSNSATHVCDVKSQSKRSSRRMSKKHRQKLLVKMKDTHLEKETAPPEYPPCKKLKGSSSKGRHAPVIKSQSTSSHHSMTSPKPKAQLTMPSTPTVLKRRNVLVKAKNSEEQELEKMQELQKEMLENLKKNEHSMKVAITGAGQPVKTFIPVTKPVDFHFKTDDRLKRTANQPEGDGYKAVDFASELRKHPPSPVQVTKGGHTVPKPFNLSKGKRKHEEASDYVSTAEQVIAFYKRTPARYHLRSRQREMEGPSPVKMIKTKLTNPKTPLLQTKGRHRPVTCKSAAELEAEELEMINQYKFKAQELDTRILEGGPVLLKKPLVKEPTKAIGFDLEIEKRIQQREKKEEIEEETFTFHSRPCPSKMLTDVVGVPLKKLLPVTVPQSPAFALKNRVRIPAQEEKQEEMVPVI
notes: TPX2, Xenopus laevis, amino acids 1-480 (disordered N-terminal region); also called N-terminal region (a.a. 1-480) of TPX2; source: recombinant, purified to >95% purity
B6: importin-αΔIBB (truncated importin-α without the importin-β-binding domain) (domain or fragment)
chain: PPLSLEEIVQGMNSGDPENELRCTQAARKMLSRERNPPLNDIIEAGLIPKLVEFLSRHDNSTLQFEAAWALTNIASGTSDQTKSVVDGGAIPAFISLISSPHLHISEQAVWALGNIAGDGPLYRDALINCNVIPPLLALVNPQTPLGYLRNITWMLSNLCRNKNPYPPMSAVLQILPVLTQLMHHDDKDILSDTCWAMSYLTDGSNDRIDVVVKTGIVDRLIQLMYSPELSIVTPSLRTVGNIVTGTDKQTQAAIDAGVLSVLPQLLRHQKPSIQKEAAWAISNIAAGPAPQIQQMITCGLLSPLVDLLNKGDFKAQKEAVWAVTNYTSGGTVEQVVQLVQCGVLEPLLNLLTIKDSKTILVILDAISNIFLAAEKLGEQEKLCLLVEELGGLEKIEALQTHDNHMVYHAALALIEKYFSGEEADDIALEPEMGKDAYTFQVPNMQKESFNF

What was measured:
[1] = biological target: B3; assay: cell-based or functional assay
[2] = biological target: B3; assay: SEC-MALS; Superdex-200-increase 3.2/300 in line with a Wyatt light scattering machine; GFP-TPX2 alone, importin-α/β alone and TPX2 with importin-α/β (TPX2 printed as 5 M, importin-α/β 15 μM); details: both partners purified
[3] = biological target: GST-importin-α (Xenopus laevis); assay: as above; details: both partners purified
[4] = biological target: B1; assay: BLI; Octet (ForteBio); TPX2 attached to sensors, importin concentration varied; normalized amplitudes; apparent Kd; details: both partners purified
[5] = biological target: B2; assay: as above; details: both partners purified
[6] = biological target: B3; assay: SEC-MALS; Superdex-200-increase 3.2/300; importin-αΔIBB alone and TPX2 (2 μM) with importin-αΔIBB (20 μM); details: both partners purified
[7] = biological target: the molecule itself; assay: as above
[8] = biological target: triple-mutant TPX2 (3M-TPX2) (Xenopus laevis, UniProt Q6NUF4 1-716, K123A | K124A | K126A | K284A | R285A | K327A | K330A); assay: BLI; Octet (ForteBio); TPX2 attached to sensors, importin concentration varied; normalized amplitudes; apparent Kd; details: both partners purified
[9] = biological target: B3; assay: as above; details: both partners purified
[10] = biological target: T1, TPX2 construct 1 to 178; assay: as above; details: both partners purified
[11] = biological target: T2, TPX2 construct 1 to 260; assay: as above; details: both partners purified
[12] = biological target: T3, TPX2 1 to 178 with the KKLK motif …; assay: as above; details: both partners purified

Chain of GST-importin-α (Xenopus laevis) (chain, as listed by the source): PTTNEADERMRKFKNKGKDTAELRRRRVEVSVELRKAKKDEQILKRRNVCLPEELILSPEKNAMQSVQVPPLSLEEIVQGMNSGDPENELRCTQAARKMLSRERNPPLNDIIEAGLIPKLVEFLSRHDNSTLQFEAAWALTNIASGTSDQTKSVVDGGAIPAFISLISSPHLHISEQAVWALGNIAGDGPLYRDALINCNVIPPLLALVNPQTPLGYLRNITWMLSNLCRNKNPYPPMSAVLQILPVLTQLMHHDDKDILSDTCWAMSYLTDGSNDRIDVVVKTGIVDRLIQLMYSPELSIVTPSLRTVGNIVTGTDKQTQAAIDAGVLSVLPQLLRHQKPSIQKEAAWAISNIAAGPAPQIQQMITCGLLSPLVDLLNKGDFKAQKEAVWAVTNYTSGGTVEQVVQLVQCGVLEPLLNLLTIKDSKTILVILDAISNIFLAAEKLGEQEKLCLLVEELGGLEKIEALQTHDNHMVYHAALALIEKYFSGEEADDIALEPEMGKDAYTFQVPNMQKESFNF

Binder: B1
- inhibition of TPX2 condensation (fluorescence microscopy; TPX2 1 μM, importin-α/β in molar excess) [1]: 2 fold excess
- stoichiometry N [2]: 1 TPX2:importin-α:importin-β

Binder: B2
- TPX2-mediated branching microtubule nucleation in Xenopus egg cytosol (TIRF microscopy; TPX2 150 nM, importin-β 2.5x to 20x) [1]: 10 fold molar excess
- stoichiometry N [3]: 1 importin-α:importin-β

Binder: B3
- Kd [4]: 75 ± 15 nM
- Kd [5]: 530 ± 75 nM

Binder: B4
- Kd [5]: > 4000 nM

Binder: B5
- Kd [5]: 512 ± 70 nM

Binder: B6
- inhibition of TPX2 condensation (fluorescence microscopy; TPX2 1 μM, importin-αΔIBB 1x to 20x; enhancement at lower concentrations) [1]: ~20 fold excess
- stoichiometry N [6]: > 1 importin-αΔIBB:TPX2
- stoichiometry N [7]: 2
- Kd [8]: 410 ± 70 nM
- Kd [9]: 61 ± 10 nM
- Kd [10]: 15 ± 3 nM
- Kd [11]: 20 ± 4 nM
- fold loss of binding against the wild-type 1-178 construct [12]: 10 fold

Reference: publication PMC8390506, “Interaction of spindle assembly factor TPX2 with importins-α/β inhibits protein phase separation” (The Journal of Biological Chemistry, 2021)
